Results from patent US8173771B2, “Humanin receptor or humanin-like polypeptide receptor” (Keio Univeristy, priority 2005, dated 2012).

Key:
[1] = molecular target: T1, PCN cells (Mus musculus, UniProt O70394+O88507); test: Immunofluorescence-based binding assay (2) on PCN, competition with unlabeled cytokines; conditions: similar range as IL-27; 10 nM biotin-HNG
T1 construct: endogenous in cells; host or cells: mouse primary cortical neurons (PCN), E14 ICR mice
T1 sequence (O70394 25-623): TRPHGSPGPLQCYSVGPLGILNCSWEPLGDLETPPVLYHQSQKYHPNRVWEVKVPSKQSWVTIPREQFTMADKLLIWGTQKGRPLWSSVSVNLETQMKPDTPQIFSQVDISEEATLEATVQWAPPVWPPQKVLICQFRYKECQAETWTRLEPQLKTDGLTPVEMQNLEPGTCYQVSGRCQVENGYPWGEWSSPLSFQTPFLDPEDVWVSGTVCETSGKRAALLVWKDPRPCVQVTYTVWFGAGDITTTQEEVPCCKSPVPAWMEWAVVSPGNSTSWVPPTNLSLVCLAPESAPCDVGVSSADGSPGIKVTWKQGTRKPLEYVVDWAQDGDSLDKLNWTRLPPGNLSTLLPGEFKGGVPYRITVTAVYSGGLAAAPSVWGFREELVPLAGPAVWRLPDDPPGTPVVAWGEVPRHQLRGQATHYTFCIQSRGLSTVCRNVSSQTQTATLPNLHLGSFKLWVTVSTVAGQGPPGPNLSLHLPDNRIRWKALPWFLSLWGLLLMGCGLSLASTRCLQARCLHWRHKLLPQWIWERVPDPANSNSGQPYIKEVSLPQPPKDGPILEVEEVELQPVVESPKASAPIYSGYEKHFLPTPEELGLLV
T1 sequence (O88507 23-342 limits assumed): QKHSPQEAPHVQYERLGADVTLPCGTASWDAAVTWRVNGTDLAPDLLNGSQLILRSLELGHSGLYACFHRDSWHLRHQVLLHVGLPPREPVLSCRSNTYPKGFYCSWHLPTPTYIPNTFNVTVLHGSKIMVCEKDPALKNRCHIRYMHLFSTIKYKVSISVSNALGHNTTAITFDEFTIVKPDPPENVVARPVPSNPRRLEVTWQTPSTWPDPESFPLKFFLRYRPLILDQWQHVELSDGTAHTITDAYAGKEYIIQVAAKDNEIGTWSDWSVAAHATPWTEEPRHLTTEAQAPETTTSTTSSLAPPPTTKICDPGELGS
T1 sequence (Q00560 23-917 partner): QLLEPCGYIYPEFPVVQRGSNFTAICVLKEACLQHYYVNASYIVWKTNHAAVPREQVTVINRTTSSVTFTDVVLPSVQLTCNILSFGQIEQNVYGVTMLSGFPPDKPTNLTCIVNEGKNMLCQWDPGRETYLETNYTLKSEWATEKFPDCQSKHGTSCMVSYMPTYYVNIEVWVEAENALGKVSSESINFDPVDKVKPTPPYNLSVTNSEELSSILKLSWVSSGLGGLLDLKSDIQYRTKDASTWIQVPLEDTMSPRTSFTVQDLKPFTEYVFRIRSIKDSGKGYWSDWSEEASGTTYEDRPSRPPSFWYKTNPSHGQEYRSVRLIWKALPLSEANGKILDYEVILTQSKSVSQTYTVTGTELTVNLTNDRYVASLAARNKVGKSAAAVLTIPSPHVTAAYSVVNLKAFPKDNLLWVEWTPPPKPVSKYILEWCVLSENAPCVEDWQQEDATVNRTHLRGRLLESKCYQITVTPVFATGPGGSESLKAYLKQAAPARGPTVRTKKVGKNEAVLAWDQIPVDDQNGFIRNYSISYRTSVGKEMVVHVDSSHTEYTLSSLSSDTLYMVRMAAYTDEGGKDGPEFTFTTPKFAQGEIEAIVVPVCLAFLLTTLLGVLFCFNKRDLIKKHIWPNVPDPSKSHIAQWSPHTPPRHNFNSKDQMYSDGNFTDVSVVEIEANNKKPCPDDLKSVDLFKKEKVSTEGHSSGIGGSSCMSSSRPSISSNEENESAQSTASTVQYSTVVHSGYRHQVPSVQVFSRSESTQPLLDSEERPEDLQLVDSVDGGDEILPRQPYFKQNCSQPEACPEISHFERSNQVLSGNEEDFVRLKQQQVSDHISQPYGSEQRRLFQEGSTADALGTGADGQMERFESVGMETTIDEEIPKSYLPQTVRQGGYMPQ
Experimental: After 6 hrs incubation, they were fixed with 4% paraformaldehyde in PBS for 30 min. After washing with PBS, cells were stained with FITC-conjugated avidin (Molecularprobe, Eugene, Oreg., USA). Immunofluorescence intensity was measured (excitation=485 nm, emission=535 nm) with a spectrofluorometer (Wallac1420 ARVOsx Multi Label Counter). Immunohistochemical analysis was done with a laser-scanning, confocal microscope LSM (Carl Zeiss, Germany).

[2] = system: primary cortical neurons (PCNs); test: Aβ neurotoxicity in primary cortical neurons, WST-8 / Calcein / LDH; type: cell-based, mouse
Experimental: B) PCNs were incubated with 25 μM Aβ (upper) in the presence of 10 μg of recombinant soluble human gp130 (lower “+”) or BSA (lower “−”). Cell viability was determined by WST-8 assay (upper) or Calcein fluorescence assay (lower) at 72 hr after the onset of treatment with Aβ.
C) PCNs were incubated with 25 μM Aβ (1-43) in the presence of 1 μg of neutralizing anti-mouse gp130 antibody (RX435) or control IgG. Cell viability and cell mortality were determined by Calcein fluorescence (left panel) and LDH assays (right panel), respectively, at 72 hr after the onset of treatment with Aβ (1-43).
[…] At 72 hr after incubation, the cells were harvested for WST-8 assays or/and Calcein fluorescence assays to show cell viability.
B) The soluble IL-6 receptor-α (sIL-6R) or the soluble CNTF-R (100 ng/ml) were added to the cells as in the above A), followed by the stimulation with its ligand, IL-6 or CNTF (100 ng/ml), respectively to show the effects on the neuronal cell death due to Aβ. The right and left graphs show the cell viabilities determined by WST-8 assays and Calcein fluorescence assays, respectively.
C) The neutralizing antibodies (1 μg) for the mouse gp130, mouse LIFR, mouse IL-11R and rat CNTF-R were added as in the above A), and cell viability was determined by Calcein fluorescence assays after 72 hours.
WST-8 assay was performed at 72 hrs after the treatment.
The primary culture of mouse cortical neurons was prepared as described previously (Sudo et al., 2000). Briefly, primary cortical neurons, obtained from embryonic day 14 (E14) ICR mice were seeded in poly-L-lysine-coated 96 well plates (Sumitomo Bakelite) at 2.5 or 5.0×10^4 cells/well in Neuron Medium (Sumitomo Bakelite) (Hashimoto et al., 2003; Niikura et al., 2004). Purity of neurons by this method was >98%. After 3 days, the culture medium was replaced with DMEM with N2 supplement. On the fourth day in vitro, 25 μM of Aβ (1-42) was added in association with indicated concentrations of HN or cytokines in the presence or the absence of soluble cytokine receptors or neutralizing antibodies. At 72 hrs after the onset of treatment, cell viability was assessed by WST-8 assay and/or Calcein fluorescence assay and cell mortality was assessed by the Trypan blue exclusion assay and LDH assay (Hashimoto et al, 2000, 2001 a b, 2003).

- inhibition of the binding of HN to PCN [1]: did not show such effect
B1: IL-6: interleukin-6, recombinant cytokine (protein, UniProt P20607 25-211, looked up)
Interleukin-6: FPTSQVRRGDFTEDTTHNRPVYTTSQVGGLITYVLREILEMRKELCNGNSDCMNSDDALSENNLKLPEIQRNDGCFQTGYNQEICLLKICSGLLEFRFYLEFVKNNLQDNKKDKARVIQSNTETLVHIFKQEIKDSYKIVLPTPTSNALLMEKLESQKEWLRTKTIQLILKALEEFLKVTMRSTRQT
- mimicry of HN in neuroprotection against neuronal cell death by Aβ ([2]; cytokine 100 ng/ml with its soluble receptor (sIL-6R or soluble CNTF receptor) 100 ng/ml): completely mimicked HN
- inhibition of neurotoxicity by Aβ ([2]; cytokine alone, physiological levels (up to 100 ng/ml), 25 μM Aβ): did not inhibit
